From patent publication US20200231640A1 (ANTIBIOTIC ALTERNATIVES, published 2020)
One block for each binder: values may come before it.

Columns and labels:
S100A9 subunit = target: T1, S100A9 subunit (human, UniProt P06702 1-114); assay: immunofluorescence of mRNA-transfected KB cells with the heterodimer-specific antibody 27E10
T1 construct: Captured with anti-S100A9 from lysate of cells that also express S100A8, so it probably stood in the complex; also called MRP14; calgranulin B
T1 sequence (looked up): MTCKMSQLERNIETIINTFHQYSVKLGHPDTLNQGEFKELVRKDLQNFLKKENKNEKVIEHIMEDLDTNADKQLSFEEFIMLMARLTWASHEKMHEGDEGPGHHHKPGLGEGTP
Procedure: After CAMP, S100A8/S100A9 mRNA transfection for 16 hours, cells were fixed with 4% paraformaldehyde for 10 minutes, washed with PBS (pH 7.4), and then permeabilized with 0.25% Triton X-100 for 10 minutes. After blocking one hour with 1% BSA in PBS/0.1% Tween 20 and rinsing 3× with PBS, cells were incubated with mouse anti-calprotectin (mAb 27E10, sc-33714, Santa Cruz Biotechnolology, Inc., Santa Cruz, Calif.) or mouse anti-LL37 (sc-166770, Santa Cruz Biotechnolology, Inc., Santa Cruz, Calif.) for one hour, followed by Alexa Fluor 568-conjugated goat anti-mouse IgG or Alexa Fluor 488-conjugated goat anti-rabbit IgG (Life Technologies Corp., Carlsbad, Calif.) for one hour. For EGFP mRNA transfection, no antibody incubation was needed. Nuclei were stained with DAPI. Fluorescence images were captured using an epifluorescence microscope system. A8-IRES-A9 and A8-nIRES-A9 mRNA transfection for 40 hours were also performed.

Chk1 = target: T2, Chk1 (human, UniProt O14757 1-476); assay: co-immunoprecipitation from cell lysate
T2 construct: also called checkpoint kinase Chk1; p-Chk1 (Ser345)
T2 sequence (looked up): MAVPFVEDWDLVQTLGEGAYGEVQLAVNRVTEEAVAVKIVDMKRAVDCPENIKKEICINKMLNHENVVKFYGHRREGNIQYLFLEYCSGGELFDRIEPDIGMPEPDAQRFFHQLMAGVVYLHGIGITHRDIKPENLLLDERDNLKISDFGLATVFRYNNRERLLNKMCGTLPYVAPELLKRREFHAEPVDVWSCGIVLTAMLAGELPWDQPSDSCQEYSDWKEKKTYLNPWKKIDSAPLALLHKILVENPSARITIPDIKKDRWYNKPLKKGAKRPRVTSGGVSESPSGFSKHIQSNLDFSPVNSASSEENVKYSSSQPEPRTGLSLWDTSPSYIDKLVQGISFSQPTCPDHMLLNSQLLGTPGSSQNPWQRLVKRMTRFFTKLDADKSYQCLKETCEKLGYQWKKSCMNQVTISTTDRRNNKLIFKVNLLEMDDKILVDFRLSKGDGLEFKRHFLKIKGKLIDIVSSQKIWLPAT

binding result (S100A9 subunit): binds
B1: S100A8 (other, human, UniProt P05109 1-93, looked up)
chain: MLTELEKALNSIIDVYHKYSLIKGNFHAVYRDDLKKLLETECPQYIRKKGADVWFKELDINTDGAVNFQEFLILVIKMGVAAHKKSHEESHKE
notes: Expressed in KB cells from transfected mRNA; also called MRP8; calgranulin A

binding result (Chk1): no binding
B2: S100A8/A9 protein complex (calprotectin; S100A8 complexed with S100A9) (other, human)
chain 1: B1 chain
chain 2: T1 sequence (looked up)
notes: Cytosolic complex in lysates of stably transfected KB-S100A8/A9 cells (co-immunoprecipitation), or in mRNA-transfected KB cells (immunofluorescence); also called S100A8/S100A9 heterodimer; MRP8/14
